Measurements: PMC7360965

Target: F-actin (filamentous actin), actin purified from chicken breast (Gallus gallus) (chicken (Gallus gallus)), P68139
Assay: co-sedimentation
Conditions: remark: other sources report otherwise

B1: Human UTRN-ABD (utrophin actin-binding domain, amino acids 1-261), wild type, P46939 1-261 (domain or fragment)
chain: MAKYGEHEASPDNGQNEFSDIIKSRSDEHNDVQKKTFTKWINARFSKSGKPPINDMFTDLKDGRKLLDLLEGLTGTSLPKERGSTRVHALNNVNRVLQVLHQNNVELVNIGGTDIVDGNHKLTLGLLWSIILHWQVKDVMKDVMSDLQQTNSEKILLSWVRQTTRPYSQVNVLNFTTSWTDGLAFNAVLHRHKPDLFSWDKVVKMSPIERLEHAFSKAQTYLGIEKLLDPEDVAVQLPDKKSIIMYLTSLFEVLPQQVTID
In the case of B1, the Kd is reported as 1800 nM.
